Results reported in US20230227838A1, “ENHANCED CELL SURVIVAL AGAINST BIOTIC AND ABIOTIC STRESSES THROUGH SALICYLICK ACID-INDUCED NPR1 CONDENSATES” (priority 2020, published 2023).

T1: Myc-CUL3 (Arabidopsis thaliana, UniProt Q9ZVH4 1-732)
T1 construct: also called AtCUL3A (AT1G26830); not shown: N-terminal Myc tag (pEG203)
T1 sequence (looked up): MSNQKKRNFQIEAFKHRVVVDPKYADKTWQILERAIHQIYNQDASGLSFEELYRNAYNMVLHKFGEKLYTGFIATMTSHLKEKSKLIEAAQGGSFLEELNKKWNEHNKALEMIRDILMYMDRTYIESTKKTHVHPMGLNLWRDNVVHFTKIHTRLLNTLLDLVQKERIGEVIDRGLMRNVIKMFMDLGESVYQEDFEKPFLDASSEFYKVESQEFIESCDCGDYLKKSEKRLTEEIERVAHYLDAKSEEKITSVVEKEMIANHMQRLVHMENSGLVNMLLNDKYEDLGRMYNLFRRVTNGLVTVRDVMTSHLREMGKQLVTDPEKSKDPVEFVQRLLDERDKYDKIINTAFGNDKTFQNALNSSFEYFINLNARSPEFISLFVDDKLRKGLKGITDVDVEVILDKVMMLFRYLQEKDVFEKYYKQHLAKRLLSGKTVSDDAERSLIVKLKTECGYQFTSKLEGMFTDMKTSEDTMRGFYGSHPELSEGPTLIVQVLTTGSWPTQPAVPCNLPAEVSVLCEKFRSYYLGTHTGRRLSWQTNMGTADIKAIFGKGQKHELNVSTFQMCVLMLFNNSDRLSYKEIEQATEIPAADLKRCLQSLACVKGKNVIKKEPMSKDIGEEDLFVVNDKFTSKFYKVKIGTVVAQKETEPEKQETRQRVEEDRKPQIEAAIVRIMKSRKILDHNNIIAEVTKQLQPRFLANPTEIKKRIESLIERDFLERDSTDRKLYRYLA


Tests used:
Myc-CUL3 [1] = target: T1, Myc-CUL3; test: co-IP, co-expression in N. benthamiana, 1 mM SA
Myc-CUL3 [2] = target: T1, Myc-CUL3; test: co-IP, N. benthamiana, 1 mM SA 5 hr
Myc-CUL3 [3] = target: T1, Myc-CUL3; test: pull-down, N. benthamiana, SA dose response

Row | Binder | binding result (Myc-CUL3 [2]) | also measured
1 | NPR1-HA (other, Full-length wild-type NPR1, transiently expressed in N. benthamiana; also called HA-fused NPR1; WT NPR1; not shown: C-terminal HA tag (pLN462)) MDTTIDGFADSYEISSTSFVATDNTDSSIVYLAAEQVLTGPDVSALQLLSNSFESVFDSPDDFYSDAKLVLSDGREVSFHRCVLSARSSFFKSALAAAKKEKDSNNTAAVKLELKEIAKDYEVGFDSVVTVLAYVYSSRVRPPPKGVSECADENCCHVACRPAVDFMLEVLYLAFIFKIPELITLYQRHLLDVVDKVVIEDTLVILKLANICGKACMKLLDRCKEIIVKSNVDMVSLEKSLPEELVKEIIDRRKELGLEVPKVKKHVSNVHKALDSDDIELVKLLLKEDHTNLDDACALHFAVAYCNVKTATDLLKLDLADVNHRNPRGYTVLHVAAMRKEPQLILSLLEKGASASEATLEGRTALMIAKQATMAVECNNIPEQCKHSLKGRLCVEILEQEDKREQIPRDVPPSFAVAADELKMTLLDLENRVALAQRLFPTEAQAAMEIAEMKGTCEFIVTSLEPDRLTGTKRTSPGVKIAPFRILEEHQSRLKALSKTVELGKRFFPRCSAVLDQIMNCEDLTQLACGEDDTAEKRLQKKQRYMEIQETLKKAFSEDNLELGNSSLTDSTSSTSKSTGGKRSNRKLSHRRR |  | binding result (Myc-CUL3 [1]): binds
2 | rdr1-HA (other, not shown: C-terminal HA tag (pLN462)) MDTTIDGFADSYEISSTSFVATDNTDSSIVYLAAEQVLTGPDVSALQLLSNSFESVFDSPDDFYSDAKLVLSDGREVSFHRCVLSARSSFFKSALAAAKKEKDSNNTAAVKLELKEIAKDYEVGFDSVVTVLAYVYSSRVRPPPKGVSEAADENAAHVAARPAVDFMLEVLYLAFIFKIPELITLYQRHLLDVVDKVVIEDTLVILKLANICGKACMKLLDRCKEIIVKSNVDMVSLEKSLPEELVKEIIDRRKELGLEVPKVKKHVSNVHKALDSDDIELVKLLLKEDHTNLDDACALHFAVAYCNVKTATDLLKLDLADVNHRNPRGYTVLHVAAMRKEPQLILSLLEKGASASEATLEGRTALMIAKQATMAVECNNIPEQCKHSLKGRLCVEILEQEDKREQIPRDVPPSFAVAADELKMTLLDLENRVALAQRLFPTEAQAAMEIAEMKGTCEFIVTSLEPDRLTGTKRTSPGVKIAPFRILEEHQSRLKALSKTVELGKRFFPRCSAVLDQIMNCEDLTQLACGEDDTAEKRLQKKQRYMEIQETLKKAFSEDNLELGNSSLTDSTSSTSKSTGGKRSNRKLSHRRR | binds | 
3 | rdr2-HA (other, not shown: C-terminal HA tag (pLN462)) MDTTIDGFADSYEISSTSFVATDNTDSSIVYLAAEQVLTGPDVSALQLLSNSFESVFDSPDDFYSDAKLVLSDGREVSFHRCVLSARSSFFKSALAAAKKEKDSNNTAAVKLELKEIAKDYEVGFDSVVTVLAYVYSSRVRPPPKGVSECADENCCHVACRPAVDFMLEVLYLAFIFKIPELITLYQRHLLDVVDKVVIEDTLVILKLANICGKACMKLLDRCKEIIVKSNVDMVSLEKSLPEELVKEIIDRRKELGLEVPKVKKHVSNVHKALDSDDIELVKLLLKEDHTNLDDACALHFAVAYCNVKTATDLLKLDLADVNHRNPRGYTVLHVAAMRKEPQLILSLLEKGASASEATLEGRTALMIAKQATMAVEANNIPEQAKHSLKGRLAVEILEQEDKREQIPRDVPPSFAVAADELKMTLLDLENRVALAQRLFPTEAQAAMEIAEMKGTCEFIVTSLEPDRLTGTKRTSPGVKIAPFRILEEHQSRLKALSKTVELGKRFFPRCSAVLDQIMNCEDLTQLACGEDDTAEKRLQKKQRYMEIQETLKKAFSEDNLELGNSSLTDSTSSTSKSTGGKRSNRKLSHRRR | binds | 
4 | sim3-HA (other, SUMOylation-deficient mutant of NPR1; also called npr1sim3; HA-fused sim3; not shown: C-terminal HA tag (pLN462)) MDTTIDGFADSYEISSTSFVATDNTDSSIVYLAAEQVLTGPDVSALQLLSNSFESVFDSPDDFYSDAKLVLSDGREVSFHRCVLSARSSFFKSALAAAKKEKDSNNTAAVKLELKEIAKDYEVGFDSVVTVLAYVYSSRVRPPPKGVSECADENCCHVACRPAVDFMLEVLYLAFIFKIPELITLYQRHLLDVVDKVVIEDTLVILKLANICGKACMKLLDRCKEIIVKSNVDMVSLEKSLPEELVKEIIDRRKELGLEVPKVKKHVSNVHKALDSDDIELVKLLLKEDHTNLDDACALHFAVAYCNVKTATDLLKLDLADVNHRNPRGYTVLHVAAMRKEPQLAASALEKGASASEATLEGRTALMIAKQATMAVECNNIPEQCKHSLKGRLCVEILEQEDKREQIPRDVPPSFAVAADELKMTLLDLENRVALAQRLFPTEAQAAMEIAEMKGTCEFIVTSLEPDRLTGTKRTSPGVKIAPFRILEEHQSRLKALSKTVELGKRFFPRCSAVLDQIMNCEDLTQLACGEDDTAEKRLQKKQRYMEIQETLKKAFSEDNLELGNSSLTDSTSSTSKSTGGKRSNRKLSHRRR |  | binding result (Myc-CUL3 [3]): binds
